Experimental data: patent US20220033460A1, “IDENTIFICATION AND USE OF T CELL EPITOPES IN DESIGNING DIAGNOSTIC AND THERAPEUTIC APPROACHES FOR COVID-19” (priority 2020, published 2022)

Legend:
DRB1*07:01 = DRB1*07:01 (Homo sapiens, UniProt P01903+P01911, A100R/A102G/A103Q/D57E/D86V/E43K/F76Y/K127E/L162R/M171V/P40G/Q125H/Q99D/R33Q/R42Y/R54Q/S133A/S66F/T210M/V115G/Y107V/Y59L/Y89S); format: cell-based; conditions: for MCR2 construct expression (presentation): 12mer peptides in DRB1*07:01-MCR2
[1] = system: TCRs from the BAL of COVID-19 patients; format: cell-based, human

| Substance | MCR2 construct expression (presentation) (DRB1*07:01) | recognition by TCR007 (NFAT activation) [1] | peptide presentation by DRB1*07:01 (FACS staining, MEDi-MA scores) (DRB1*07:01; mutated versus WT peptides) |
| --- | --- | --- | --- |
| S714-725(T716I): Spike 12mer peptide with T716I cloned into DRB1*07:01-MCR2 | expressed well | – | – |
| S714-725: Spike 12mer peptide cloned into DRB1*07:01-MCR2 | expressed well | not | – |
| S714-728 (T716I): Spike 15mer 714-728 with the T716I mutation of the B1.1.7 variant | – | not recognized | presented as well as the WT |
